Measured values taken from the supplement of paper PMC7877785.
± gives the uncertainty stated by the source.

Test: self-splicing fitness, log relative to wild type (ln ratio); higher = more splicing; Tetrahymena group I intron in knt gene, E. coli kanamycin selection, DiMSum; sequences stand for … in CUCUCU…GGAGGGAAAAGUUAUCAGGCAUGCACCUGGUAGCUAGUCUUUAAACCAAUAGAUUGCAUCGGUUUAAAAGGCAAGACCGUCAAAUUGCGGGAAAGGGGUCAACAGCCGUUCAGUACCAAGUCUCAGGGGAAACUUUGAGAUGGCCUUGCAAAGGGUAUGGUAAUAAGCUGACGGACAUGGUCCUAACCACGCAGCCAAGUCCUAAGUCAACAGAUCUUCUGUUGAUAUGGAUGCAGUUCACAGACUAAAUGUCGGUCGGGGAAGAUGUAUUCUUCUCAUAAGAUAUAGUCGGACCUCUCCUUAAUGGGAGCUAGCGGAUGAAGUGAUGCAACACUGGAGCCGCUGGGAACUAAUUUGUAUGCGAAAGUAUAUUGAUUAGUUUUGGAGUACUCGUGGUCG
In short: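 Library with all eight P1ex-region intron nucleotides randomised, intron inside the knt kanamycin-resistance gene on pET-22b(+), in E. coli BL21(DE3). Cells grew overnight at 37°C or 30°C on LB agar with or without 25 μg/mL kanamycin (plus 100 μg/mL carbenicillin, 50 μM IPTG, 0.2% rhamnose), in six replicate transformations. Pooled colonies were amplicon-sequenced on Illumina HiSeq 2500. DiMSum fitness is the error-weighted combination of wild-type-normalised replicate fold changes, kanamycin versus none.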

| Sequence | self-splicing fitness (ln) (30 °C) | self-splicing fitness (ln) (37 °C) |
| --- | --- | --- |
| UGCCAGCAAUAUUACGCGAC | -2.62 ± 0.3 | -0.608 ± 0.23 |
| AGUCAGCAAUAUUACGCGCA | -0.326 ± 0.11 | 0.452 ± 0.17 |
| UCGGAGCAAUAUUACGCAUG | -3.6 ± 0.22 | -1.38 ± 0.17 |
| CUUGAGCAAUAUUACGCCUA |  | -3.13 ± 0.44 |
| GUGUAGCAAUAUUACGUGCC | -3.46 ± 0.35 | -2.7 ± 0.32 |
| UUACAGCAAUAUUACGGUCC | -1.95 ± 0.16 | -1.03 ± 0.16 |
| GACGAGCAAUAUUACGCUGA | -3.74 ± 0.35 | -1.95 ± 0.24 |
| GCAAAGCAAUAUUACGGCUG | -2.43 ± 0.14 | -1.24 ± 0.17 |
| ACACAGCAAUAUUACGGACC | -1.99 ± 0.093 | -0.524 ± 0.11 |
| AUGCAGCAAUAUUACGACUU | 0.39 ± 0.068 | 0.224 ± 0.075 |
| UCGUAGCAAUAUUACGGGGG | -3.07 ± 0.44 | -2 ± 0.47 |
| UUCUAGCAAUAUUACGCAUC | -2.33 ± 0.42 | -0.769 ± 0.29 |
| ACGUAGCAAUAUUACGCAGG | -3.67 ± 0.24 | 0.325 ± 0.1 |
| GCUUAGCAAUAUUACGAAGG | -0.605 ± 0.12 | -0.64 ± 0.21 |
| ACGAAGCAAUAUUACGACGU | -2.78 ± 0.17 | -1.88 ± 0.19 |
| UCCCAGCAAUAUUACGAGGU | -1.76 ± 0.071 | -0.885 ± 0.073 |
| AAUUAGCAAUAUUACGUGGU | -4.47 ± 0.26 | -2.18 ± 0.14 |
| UCUAAGCAAUAUUACGCCGG | -1.15 ± 0.13 | -0.186 ± 0.15 |
| UGCAAGCAAUAUUACGGUCU | -0.647 ± 0.07 | 0.283 ± 0.082 |

| Sequence | self-splicing fitness (ln) (30 °C) | self-splicing fitness (ln) (37 °C) |
| --- | --- | --- |
| CCUUAGCAAUAUUACGGUCA |  | -3.63 ± 0.37 |
| GGCUAGCAAUAUUACGGAUC | -0.815 ± 0.23 | 0.314 ± 0.2 |
| GCUUAGCAAUAUUACGGAGC | -2.97 ± 0.19 | -2.57 ± 0.41 |
| AAUAAGCAAUAUUACGCCAU | -2.76 ± 0.14 | -1.75 ± 0.15 |
| GCUCAGCAAUAUUACGUAAA | -0.495 ± 0.064 | 0.264 ± 0.086 |
| UCACAGCAAUAUUACGGAGC | -2.68 ± 0.15 | -2.04 ± 0.22 |
| CACGAGCAAUAUUACGCAAG | -2.4 ± 0.19 | -0.867 ± 0.15 |
| UCUUAGCAAUAUUACGUGUA | -0.944 ± 0.17 | -1.19 ± 0.2 |
| CUCUAGCAAUAUUACGCUCA | -1.32 ± 0.3 | -3.25 ± 0.37 |
| AGAUAGCAAUAUUACGACGC | -0.572 ± 0.16 | 0.997 ± 0.22 |
| UGGAAGCAAUAUUACGGACG | -1.13 ± 0.16 | 0.0618 ± 0.28 |
| GCUAAGCAAUAUUACGGCGA | -0.936 ± 0.1 | -0.247 ± 0.13 |
| UUGGAGCAAUAUUACGUGGU | -2.84 ± 0.36 | -2.56 ± 0.32 |
| UGGUAGCAAUAUUACGACCG | -1.22 ± 0.22 | -0.981 ± 0.27 |
| CGGCAGCAAUAUUACGUACA | -1.26 ± 0.11 | -0.624 ± 0.14 |
| UUACAGCAAUAUUACGUUUC | -3.05 ± 0.17 | -2.53 ± 0.25 |
| ACAAAGCAAUAUUACGUUCA | -1.2 ± 0.068 | -0.708 ± 0.076 |
| UCCCAGCAAUAUUACGUGUU | -3.33 ± 0.12 | -2.19 ± 0.11 |
